The results in this text go back to the RNAGym collection of RNA variant scans (doi:10.7554/elife.80360).

B1: HDV Ribozyme (parent)
chain: GGCCGGCAUGGUCCCAGCCUCCUCGCUGGCGCCGGCUGGGCAACAUUCCGAGGGGACCGUCCCCUCGGUAAUGGCGAAUGGGACCCA

In this series the parent is B1. Nature of the series: self-cleavage, relative activity (ratio to wild type); higher = more cleavage; co-transcriptional.
As to GGCCGGCAUGGUUCCAGCCUCCUCGCUGGCGCCGGCUGGGCAACAUUCCGAGGGGACCGUCCCCUCGGUAAUGGCGAAUGGGACCCG [C13U A87G], the self-cleavage came out at 0.634.
With GGCCGGCAUGGUUCCAGCCUCCUCGCUGGCGCCGGCUGGGCAACAUUCCGAGGGGACCGUCCCCUCGGUAAUGGCGAAUGGGACCCC [C13U A87C], the self-cleavage is 0.647.
GGCCGGCAUGGUUCCAGCCUCCUCGCUGGCGCCGGCUGGGCAACAUUCCGAGGGGACCGUCCCCUCGGUAAUGGCGAAUGGGACCCU [C13U A87U]: the self-cleavage stood at 0.819.
For GGCCGGCAUGGUUCCAGCCUCCUCGCUGGCGCCGGCUGGGCAACAUUCCGAGGGGACCGUCCCCUCGGUAAUGGCGUAUGGGACCCA [C13U A77U], the self-cleavage was determined as 0.155.
With GGCCGGCAUGGUUCCAGCCUCCUCGCUGGCGCCGGCUGGGCAACAUUCCGAGGGGACCGUCCCCUCGGUAAUGGCGGAUGGGACCCA [C13U A77G] the figure was 0.399.
Regarding GGCCGGCAUGGUGCCAGCCUCCUCGCAGGCGCCGGCUGGGCAACAUUCCGAGGGGACCGUCCCCUCGGUAAUGGCGAAUGGGACCCA [C13G U27A], the self-cleavage turned out to be 0.391.
Take GGCCGGCAUGGUGCCAGCCUCCUCGCGGGCGCCGGCUGGGCAACAUUCCGAGGGGACCGUCCCCUCGGUAAUGGCGAAUGGGACCCA [C13G U27G]: the self-cleavage came out at 0.396.
As to GGCCGGCAUGGUGCCAGCCUCCUCGCUGGCGCCGGCUGGGCAACAUUCCGAGGGGACCGUCCCCUCGGUAACGGCGAAUGGGACCCA [C13G U72C], the self-cleavage turned out to be 0.0723.
With GGCCGGCAUGGUGCCAGCCUCCUCGCUGGCGCCGGCUGGGCAACAUUCCGAGGGGACCGUCCCCUCGGUAAUCGCGAAUGGGACCCA [C13G G73C], the self-cleavage came to 0.0396.
Turning to GGCCGGCAUGGUGCCAGCCUCCUCGCUGGCGCCGGCUGGGCAACAUUCCGAGGGGACCGUCCCCUCGGUAAUUGCGAAUGGGACCCA [C13G G73U], the self-cleavage worked out at 0.0361.
GGCCGGCAUGGUGCCAGCCUCCUCGCUGGCGCCGGCUGGGCAACAUACCGAGGGGACCGUCCCCUCGGUAAUGGCGAAUGGGACCCA [C13G U47A]: the self-cleavage worked out at 0.
On to GGCCGGCAUGGUGCCAGCCUCCUCGCUGGCGCCGGCUGGGCAACAUGCCGAGGGGACCGUCCCCUCGGUAAUGGCGAAUGGGACCCA [C13G U47G], for which the self-cleavage was determined as 0.151.
With GGCCGGCAUGGUGCCAGCCUCCUCGCUGGCGCCGGCUGGGCAACAUCCCGAGGGGACCGUCCCCUCGGUAAUGGCGAAUGGGACCCA [C13G U47C] the figure was 0; with GGCCGGCAUGGUGCCAGCCUCCUCGCUGGCGCCGGCUGGGCAACAAUCCGAGGGGACCGUCCCCUCGGUAAUGGCGAAUGGGACCCA [C13G U46A], 0.0615.
On to GGCCGGCAUGGUUCCAGCCUCCUCGCUGGCGCCGGCUGGGCAGCAUUCCGAGGGGACCGUCCCCUCGGUAAUGGCGAAUGGGACCCA [C13U A43G], for which the self-cleavage was 0.525.
In the case of GGCCGGCAUGGUUCCAGCCUCCUCGCUGGCGCCGGCUGGGCAACGUUCCGAGGGGACCGUCCCCUCGGUAAUGGCGAAUGGGACCCA [C13U A45G], the self-cleavage worked out at 0.465.
As for GGCCGGCAUGGUUCCAGCCUCCUCGCUGGCGCGGGCUGGGCAACAUUCCGAGGGGACCGUCCCCUCGGUAAUGGCGAAUGGGACCCA [C13U C33G], the self-cleavage worked out at 0.252.
For GGCCGGCAUGGUUCCAGCCUCCUCGCUGGCGCUGGCUGGGCAACAUUCCGAGGGGACCGUCCCCUCGGUAAUGGCGAAUGGGACCCA [C13U C33U] the value was 0.397.
On to GGCCGGCAUGGUGCCAGCCUCCUCGCUGGCGCCGGCUGGGCAACAUUCCGAGGGGACCGUCCCCUCGGCAAUGGCGAAUGGGACCCA [C13G U69C], for which the self-cleavage came to 0.111.
As to GGCCGGCAUGGUUCCAGCCUCCUCGCUGGCGCCGGCUGGGCAACAUUCCGAGGGGGCCGUCCCCUCGGUAAUGGCGAAUGGGACCCA [C13U A56G], the self-cleavage came out at 0.573.
With GGCCGGCAUGGUUCCAGCCUCCUCGCUGGCGCCGGCUGGGCAACAUUCCGAGGGGUCCGUCCCCUCGGUAAUGGCGAAUGGGACCCA [C13U A56U] the figure was 0.554; with GGCCGGCAUGGUUCCAGCCUCCUCGCUGGCGCCGGCUGGGCAACAUUCCGAGGGGACCGUCCCCUCGGUAAUGGCGAAUGGGACCCA [C13U], 0.683; with GGCCGGCAUGGUUCGAGCCUCCUCGCUGGCGCCGGCUGGGCAACAUUCCGAGGGGACCGUCCCCUCGGUAAUGGCGAAUGGGACCCA [C13U C15G], 0.356.
On to GGCCGGCAUGGUUCUAGCCUCCUCGCUGGCGCCGGCUGGGCAACAUUCCGAGGGGACCGUCCCCUCGGUAAUGGCGAAUGGGACCCA [C13U C15U], for which the self-cleavage was found to be 0.733.
With GGCCGGCAUGGUUCCAGCCUCCUCGCUGGCGCCGGCUGGGCGACAUUCCGAGGGGACCGUCCCCUCGGUAAUGGCGAAUGGGACCCA [C13U A42G] the figure was 0.0755.
With GGCCGGCAUGGUGCCAGCCUCCUCGCUGGCGCCGGCUGGGCAACAUUCCGAGGGGACCGUCCCCUCGGUAAUGGCUAAUGGGACCCA [C13G G76U] the figure was 0.104; with GGCCGGCAUGGUGCCAGCCACCUCGCUGGCGCCGGCUGGGCAACAUUCCGAGGGGACCGUCCCCUCGGUAAUGGCGAAUGGGACCCA [C13G U20A], 0; with GGCCGGCAUGGUGCCAGCCCCCUCGCUGGCGCCGGCUGGGCAACAUUCCGAGGGGACCGUCCCCUCGGUAAUGGCGAAUGGGACCCA [C13G U20C], 0.158.
As to GGCCGGCAUGGUGCCAGCCGCCUCGCUGGCGCCGGCUGGGCAACAUUCCGAGGGGACCGUCCCCUCGGUAAUGGCGAAUGGGACCCA [C13G U20G], the self-cleavage is 0.
As to GGCCGGCAUGGUUCCGGCCUCCUCGCUGGCGCCGGCUGGGCAACAUUCCGAGGGGACCGUCCCCUCGGUAAUGGCGAAUGGGACCCA [C13U A16G], the self-cleavage amounted to 0.978.
On to GGCCGGCAUGGUUCCAGCCUCCUCGCUGGCGCCGGCUGGGCAACAUUCCGAGGGGACCGUCCCCUCGGUAGUGGCGAAUGGGACCCA [C13U A71G], for which the self-cleavage amounted to 0.429.
As to GGCCGGCAUGGUUCCAGCCUCCUCGCUGGCGCCGGCUGGGCAACAUUCCGAGGGGACCGUCCCCUCGGUAUUGGCGAAUGGGACCCA [C13U A71U], the self-cleavage came to 0.494.
